Biological target: thrombin (UniProt P00734;P00734 328-363;364-622)
Assay: fluorescence turn-on (FRET Pdots to BHQ-aptamer); 130 nM thrombin, Pdots present; F/F0 = 6.5; Buffer, salt and pH not given in the material (Hepes listed as reagent); incubation 60 min; Pdots-BHQ-TBA quenching plot at 298 K

Binder: GGTTGGTGTGGTTGG (ssDNA) [BHQ-TBA (BHQ-labelled thrombin aptamer)]
- binding result: binds

Source: paper PMC5855441, “Detection of Thrombin Based on Fluorescence Energy Transfer between Semiconducting Polymer Dots and BHQ-Labelled Aptamers”
